From publication PMC8385704 (2021)

Molecular target: His-tagged recombinant human ACE2 protein (residues 19-740), dimeric (human, UniProt Q9BYF1 19-740)
Test: BLI

His-tagged recombinant human ACE2 protein (residues 19-740), dimeric, sequence (Q9BYF1 19-740): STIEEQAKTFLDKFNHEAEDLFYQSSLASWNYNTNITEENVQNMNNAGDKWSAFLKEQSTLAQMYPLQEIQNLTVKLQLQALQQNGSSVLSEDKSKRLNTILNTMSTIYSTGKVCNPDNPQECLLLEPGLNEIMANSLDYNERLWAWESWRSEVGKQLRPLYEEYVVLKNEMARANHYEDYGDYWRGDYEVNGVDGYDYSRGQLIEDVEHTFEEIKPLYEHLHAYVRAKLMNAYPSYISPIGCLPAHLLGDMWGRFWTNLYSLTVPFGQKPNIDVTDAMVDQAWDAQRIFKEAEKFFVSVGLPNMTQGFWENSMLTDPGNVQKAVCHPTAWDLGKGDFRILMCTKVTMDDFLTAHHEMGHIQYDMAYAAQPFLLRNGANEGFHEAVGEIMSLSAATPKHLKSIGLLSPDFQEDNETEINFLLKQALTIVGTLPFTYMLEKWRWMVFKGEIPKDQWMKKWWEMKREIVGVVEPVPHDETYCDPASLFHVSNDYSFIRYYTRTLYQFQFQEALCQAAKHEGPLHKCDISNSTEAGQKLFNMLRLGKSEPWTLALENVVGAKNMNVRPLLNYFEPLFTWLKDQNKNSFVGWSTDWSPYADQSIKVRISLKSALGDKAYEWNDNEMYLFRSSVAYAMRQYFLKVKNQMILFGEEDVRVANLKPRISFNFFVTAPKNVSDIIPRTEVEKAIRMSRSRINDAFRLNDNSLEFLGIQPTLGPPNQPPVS

koff: 0.000278 s⁻¹
B1: monoclonal antibody 3E8 (antibody, V domains shown)
VH: EVQLEESGAELVRPGASVKISCKAFGYTFTNHHINWMKQRPGQGLDWIGYVNPYNDYTKYSQNFKGKATLSVDRSSSTAYMELSSLTSEDSAVYYCARWRDYDRDWYFDVWGAGTTVIVSS
VL: DIVMTQSPATLSVTPGDRVSLSCRASQSIRDYLYWYQQKSHESPRLLIKYASQSISGIPSRFSGSGSGSDFTLSINSVEPEDVGVYYCQNGHSFPYTFGGGTKLEIK
